According to patent US20250320281A1:

What was measured:
WT JR-FL gp120 (HIV-1) = assay: ELISA, antigen-coated wells
[1] = target: HIV-1 Env of isolate MGRM-C-015 (HIV-1); assay: cell-based or functional assay
[2] = target: HIV-1 Env of pseudovirus isolate MGRM-G-015 (HIV-1); assay: cell-based or functional assay
[3] = target: HIV-1 Env of isolate MGRM-C-010 (HIV-1); assay: cell-based or functional assay
[4] = target: HIV-1 Env of isolate MGRM-C-019 (HIV-1); assay: cell-based or functional assay
[5] = target: HIV-1 Env of pseudovirus isolate MGRM-G-011 (HIV-1); assay: cell-based or functional assay
[6] = target: HIV-1 Env of isolate MGRM-C-022 (HIV-1); assay: cell-based or functional assay
[7] = target: HIV-1 Env of isolate MGRM-C-012 (HIV-1); assay: cell-based or functional assay
[8] = target: HIV-1 Env of isolate MGRM-C-009 (HIV-1); assay: cell-based or functional assay
[9] = target: HIV-1 Env of isolate MGRM-C-002 (HIV-1); assay: cell-based or functional assay
[10] = target: HIV-1 Env of pseudovirus isolate MGRM-G-027 (HIV-1); assay: cell-based or functional assay
[11] = target: HIV-1 Env of pseudovirus isolate MGRM-G-014 (HIV-1); assay: cell-based or functional assay
[12] = target: HIV-1 Env of pseudovirus isolate MGRM-G-006 (HIV-1); assay: cell-based or functional assay
[13] = target: HIV-1 Env of isolate MGRM-C-023 (HIV-1); assay: cell-based or functional assay
[14] = target: HIV-1 Env of isolate MGRM-C-005 (HIV-1); assay: cell-based or functional assay
[15] = target: HIV-1 Env of pseudovirus isolate MGRM-G-004 (HIV-1); assay: cell-based or functional assay
[16] = target: HIV-1 Env of isolate MGRM-C-006 (HIV-1); assay: cell-based or functional assay
[17] = target: HIV-1 Env of pseudovirus isolate MGRM-G-016 (HIV-1); assay: cell-based or functional assay
[18] = target: HIV-1 Env of isolate MGRM-C-025 (HIV-1); assay: cell-based or functional assay
[19] = target: HIV-1 Env of pseudovirus isolate MGRM-G-013 (HIV-1); assay: cell-based or functional assay
[20] = target: HIV-1 Env of pseudovirus isolate MGRM-G-019 (HIV-1); assay: cell-based or functional assay
[21] = target: HIV-1 Env of isolate MGRM-C-001 (HIV-1); assay: cell-based or functional assay
[22] = target: HIV-1 Env of isolate MGRM-C-020 (HIV-1); assay: cell-based or functional assay
[23] = target: HIV-1 Env of isolate MGRM-C-004 (HIV-1); assay: cell-based or functional assay
[24] = target: envelope of aMLV pseudovirus (negative control); assay: cell-based or functional assay
[25] = target: HIV-1 Env of isolate MGRM-C-017 (HIV-1); assay: cell-based or functional assay
[26] = target: HIV-1 Env of pseudovirus isolate MGRM-G-001 (HIV-1); assay: cell-based or functional assay
[27] = target: HIV-1 Env of isolate MGRM-C-014 (HIV-1); assay: cell-based or functional assay
[28] = target: HIV-1 Env of isolate MGRM-C-007 (HIV-1); assay: cell-based or functional assay
[29] = target: HIV-1 Env of isolate MGRM-C-024 (HIV-1); assay: cell-based or functional assay
[30] = target: HIV-1 Env of isolate MGRM-C-008 (HIV-1); assay: cell-based or functional assay
[31] = target: HIV-1 Env of pseudovirus isolate MGRM-G-009 (HIV-1); assay: cell-based or functional assay
[32] = target: HIV-1 Env of isolate MGRM-C-013 (HIV-1); assay: cell-based or functional assay
[33] = target: HIV-1 Env of pseudovirus isolate MGRM-G-017 (HIV-1); assay: cell-based or functional assay
[34] = target: HIV-1 CMU02 Env (pseudovirus) (HIV-1); assay: cell-based or functional assay
[35] = target: HIV-1 92UG005 Env (pseudovirus) (HIV-1); assay: cell-based or functional assay
[36] = target: HIV-1 NL43 Env (pseudovirus) (HIV-1); assay: cell-based or functional assay
[37] = target: HIV-1 92UG024 Env (pseudovirus) (HIV-1); assay: cell-based or functional assay
[38] = target: HIV-1 92TH021 Env (pseudovirus) (HIV-1); assay: cell-based or functional assay

| Substance | EC50 (WT JR-FL gp120 (HIV-1)) | neutralization IC50 [1] | IC50 (µg/mL), pseudovirus neutralization [2] | neutralization IC50 [3] | neutralization IC50 [4] | IC50 (µg/mL), pseudovirus neutralization [5] | neutralization IC50 [6] | neutralization IC50 [7] | neutralization IC50 [8] | neutralization IC50 [9] | IC50 (µg/mL), pseudovirus neutralization [10] | IC50 (µg/mL), pseudovirus neutralization [11] | IC50 (µg/mL), pseudovirus neutralization [12] | neutralization IC50 [13] | neutralization IC50 [14] | IC50 (µg/mL), pseudovirus neutralization [15] | neutralization IC50 [16] | IC50 (µg/mL), pseudovirus neutralization [17] | neutralization IC50 [18] | IC50 (µg/mL), pseudovirus neutralization [19] | further results |
| --- | --- | --- | --- | --- | --- | --- | --- | --- | --- | --- | --- | --- | --- | --- | --- | --- | --- | --- | --- | --- | --- |
| 5145_B14 (PGT-127) (antibody) | 0.1 µg/mL | > 50 µg/mL | > 50 µg/mL | > 50 µg/mL | 0.017 µg/mL | > 50 µg/mL | 0.41 µg/mL | 1.07 µg/mL | > 50 µg/mL | 0.057 µg/mL | > 50 µg/mL | 0.009 µg/mL | > 50 µg/mL | 1.08 µg/mL | 0.57 µg/mL | > 50 µg/mL | 0.319 µg/mL | > 50 µg/mL | > 50 µg/mL | 7.7 µg/mL | IC50 (µg/mL), pseudovirus neutralization [20]: 0.429 µg/mL; neutralization IC50 [21]: > 50 µg/mL; neutralization IC50 [22]: > 50 µg/mL; neutralization IC50 [23]: 0.532 µg/mL; IC50 (µg/mL), pseudovirus neutralization [24]: > 50 µg/mL; neutralization IC50 [25]: 3.4 µg/mL; IC50 (µg/mL), pseudovirus neutralization [26]: 0.113 µg/mL; neutralization IC50 [27]: > 50 µg/mL; neutralization IC50 [28]: > 50 µg/mL; neutralization IC50 [29]: > 50 µg/mL; neutralization IC50 [30]: > 50 µg/mL; IC50 (µg/mL), pseudovirus neutralization [31]: > 50 µg/mL; neutralization IC50 [32]: > 50 µg/mL; IC50 (µg/mL), pseudovirus neutralization [33]: > 50 µg/mL |
| 4838_L06 (PGT-121) (antibody) | 0.2 µg/mL | 25.1 µg/mL | > 50 µg/mL | > 50 µg/mL | > 50 µg/mL | 3.17 µg/mL | 0.015 µg/mL | 0.123 µg/mL | > 50 µg/mL | 0.019 µg/mL | 0.124 µg/mL | 0.009 µg/mL | > 50 µg/mL | 0.017 µg/mL | 0.015 µg/mL | 0.115 µg/mL | 0.017 µg/mL | > 50 µg/mL | 46.8 µg/mL | 3.99 µg/mL | neutralization IC50 (pseudovirus) [34]: > 10 µg/mL; IC50 (µg/mL), pseudovirus neutralization [20]: 0.011 µg/mL; neutralization IC50 [21]: 17.5 µg/mL; neutralization IC50 (pseudovirus) [35]: > 10 µg/mL; neutralization IC50 [22]: > 50 µg/mL; neutralization IC50 [23]: 0.011 µg/mL; IC50 (µg/mL), pseudovirus neutralization [24]: > 50 µg/mL; neutralization IC50 [25]: 0.009 µg/mL; IC50 (µg/mL), pseudovirus neutralization [26]: 0.004 µg/mL; neutralization IC50 [27]: 26.9 µg/mL; neutralization IC50 [28]: 0.196 µg/mL; neutralization IC50 (pseudovirus) [36]: > 10 µg/mL; neutralization IC50 [29]: 0.052 µg/mL; neutralization IC50 [30]: 0.012 µg/mL; IC50 (µg/mL), pseudovirus neutralization [31]: 0.02 µg/mL; neutralization IC50 [32]: 7.23 µg/mL; neutralization IC50 (pseudovirus) [37]: > 10 µg/mL; neutralization IC50 (pseudovirus) [38]: > 10 µg/mL; IC50 (µg/mL), pseudovirus neutralization [33]: 0.004 µg/mL |
